In the supplement of paper PMC9112550, “Optimization of the antimicrobial peptide Bac7 by deep mutational scanning” (BMC Biology, 2022):

Tested on: Escherichia coli TOP10
Assay: shrunken log2 fold change of peptide-encoding DNA abundance (4.5 h post-induction vs induction); higher = less antimicrobial activity (less host growth inhibition)
Details: time post-induction: 4.5 h; library: site-saturation at positions 5, 18, 19, 20
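Note: peptides expressed intracellularly from a pBAD plasmid library in pooled LB shake-flask culture, induced with 0.3% L-arabinose, DNA abundance read by NGS, three biological replicates, DESeq2 with apeglm shrinkage.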

| Sequence | shrunken log2 fold change |
| --- | --- |
| RRIRPRPPRLPRPRPRPCFCPRP | 0.299 |
| RRIRPRPPRLPRPRPRPCFPPRP | -0.0413 |
| RRIRPRPPRLPRPRPRPCGSPRP | -0.023 |
| RRIRPRPPRLPRPRPRPCHFPRP | -0.265 |
| RRIRPRPPRLPRPRPRPCIHPRP | -0.252 |
| RRIRPRPPRLPRPRPRPCKFPRP | -0.0234 |
| RRIRPRPPRLPRPRPRPCKMPRP | -0.223 |
| RRIRPRPPRLPRPRPRPCMQPRP | -0.358 |
| RRIRPRPPRLPRPRPRPCPGPRP | -0.0306 |
| RRIRPRPPRLPRPRPRPCPQPRP | -0.0291 |
| RRIRPRPPRLPRPRPRPCQIPRP | -0.0156 |
| RRIRPRPPRLPRPRPRPCQMPRP | 0.0359 |
| RRIRPRPPRLPRPRPRPCQTPRP | 0.0185 |
| RRIRPRPPRLPRPRPRPCRNPRP | -0.176 |
| RRIRPRPPRLPRPRPRPCSGPRP | -0.0356 |
| RRIRPRPPRLPRPRPRPCSLPRP | 0.527 |
| RRIRPRPPRLPRPRPRPCSWPRP | 0.0726 |
| RRIRPRPPRLPRPRPRPCTQPRP | -0.106 |
| RRIRPRPPRLPRPRPRPCVGPRP | 0.267 |
| RRIRPRPPRLPRPRPRPCVTPRP | 0.15 |
| RRIRPRPPRLPRPRPRPCWEPRP | -0.0268 |
| RRIRPRPPRLPRPRPRPCWYPRP | -0.408 |
| RRIRPRPPRLPRPRPRPCYAPRP | -0.414 |
| RRIRPRPPRLPRPRPRPCYEPRP | -0.195 |
| RRIRPRPPRLPRPRPRPCYRPRP | -0.154 |

| Sequence | shrunken log2 fold change |
| --- | --- |
| RRIRPRPPRLPRPRPRPCYYPRP | -0.436 |
| RRIRPRPPRLPRPRPRPDADPRP | 0.0741 |
| RRIRPRPPRLPRPRPRPDAEPRP | 0.496 |
| RRIRPRPPRLPRPRPRPDAFPRP | 0.342 |
| RRIRPRPPRLPRPRPRPDAGPRP | 0.442 |
| RRIRPRPPRLPRPRPRPDCYPRP | -0.0771 |
| RRIRPRPPRLPRPRPRPDDDPRP | -0.175 |
| RRIRPRPPRLPRPRPRPDDTPRP | -0.085 |
| RRIRPRPPRLPRPRPRPDESPRP | -0.188 |
| RRIRPRPPRLPRPRPRPDFLPRP | -0.235 |
| RRIRPRPPRLPRPRPRPDGCPRP | -0.228 |
| RRIRPRPPRLPRPRPRPDGKPRP | 0.25 |
| RRIRPRPPRLPRPRPRPDIHPRP | -0.458 |
| RRIRPRPPRLPRPRPRPDIRPRP | -0.0755 |
| RRIRPRPPRLPRPRPRPDLAPRP | 0.316 |
| RRIRPRPPRLPRPRPRPDLWPRP | 0.344 |
| RRIRPRPPRLPRPRPRPDMTPRP | -0.293 |
| RRIRPRPPRLPRPRPRPDMYPRP | -0.192 |
| RRIRPRPPRLPRPRPRPDNNPRP | -0.512 |
| RRIRPRPPRLPRPRPRPDPLPRP | -0.379 |
| RRIRPRPPRLPRPRPRPDPPPRP | 0.249 |
| RRIRPRPPRLPRPRPRPDPYPRP | 0.0668 |
| RRIRPRPPRLPRPRPRPDQEPRP | -0.151 |
| RRIRPRPPRLPRPRPRPDQNPRP | -0.065 |
| RRIRPRPPRLPRPRPRPDREPRP | 0.0682 |

| Sequence | shrunken log2 fold change |
| --- | --- |
| RRIRPRPPRLPRPRPRPDSYPRP | -0.422 |
| RRIRPRPPRLPRPRPRPDTFPRP | -0.0596 |
| RRIRPRPPRLPRPRPRPDTLPRP | -0.284 |
| RRIRPRPPRLPRPRPRPDTMPRP | -0.649 |
| RRIRPRPPRLPRPRPRPDTQPRP | -0.371 |
| RRIRPRPPRLPRPRPRPDVAPRP | -0.0448 |
| RRIRPRPPRLPRPRPRPDVNPRP | -0.233 |
| RRIRPRPPRLPRPRPRPDVWPRP | 0.266 |
| RRIRPRPPRLPRPRPRPDVYPRP | -0.194 |
| RRIRPRPPRLPRPRPRPDYQPRP | -0.211 |
| RRIRPRPPRLPRPRPRPEANPRP | 0.473 |
| RRIRPRPPRLPRPRPRPECFPRP | 0.122 |
| RRIRPRPPRLPRPRPRPECKPRP | -0.352 |
| RRIRPRPPRLPRPRPRPEFCPRP | 0.18 |
| RRIRPRPPRLPRPRPRPEFQPRP | 0.0778 |
| RRIRPRPPRLPRPRPRPEGCPRP | 0.17 |
| RRIRPRPPRLPRPRPRPEGMPRP | 0.305 |
| RRIRPRPPRLPRPRPRPEGNPRP | 0.189 |
| RRIRPRPPRLPRPRPRPEGTPRP | 0.0836 |
| RRIRPRPPRLPRPRPRPEHIPRP | 0.149 |
| RRIRPRPPRLPRPRPRPELKPRP | 0.0877 |
| RRIRPRPPRLPRPRPRPENPPRP | 0.0677 |
| RRIRPRPPRLPRPRPRPEPLPRP | 0.0833 |
| RRIRPRPPRLPRPRPRPERFPRP | -0.0264 |
| RRIRPRPPRLPRPRPRPERLPRP | 0.0284 |

| Sequence | shrunken log2 fold change |
| --- | --- |
| RRIRPRPPRLPRPRPRPESLPRP | -0.0197 |
| RRIRPRPPRLPRPRPRPESPPRP | 0.161 |
| RRIRPRPPRLPRPRPRPETMPRP | 0.00383 |
| RRIRPRPPRLPRPRPRPEVLPRP | -0.204 |
| RRIRPRPPRLPRPRPRPEVPPRP | 0.0363 |
| RRIRPRPPRLPRPRPRPEYKPRP | -0.293 |
| RRIRPRPPRLPRPRPRPEYNPRP | -0.624 |
| RRIRPRPPRLPRPRPRPEYVPRP | -0.0441 |
| RRIRPRPPRLPRPRPRPFAFPRP | 0.00781 |
| RRIRPRPPRLPRPRPRPFAPPRP | 0.14 |
| RRIRPRPPRLPRPRPRPFDFPRP | -0.206 |
| RRIRPRPPRLPRPRPRPFDLPRP | -0.736 |
| RRIRPRPPRLPRPRPRPFDPPRP | -0.0325 |
| RRIRPRPPRLPRPRPRPFEAPRP | -0.105 |
| RRIRPRPPRLPRPRPRPFEQPRP | -0.281 |
| RRIRPRPPRLPRPRPRPFFDPRP | -0.12 |
| RRIRPRPPRLPRPRPRPFFVPRP | 0.064 |
| RRIRPRPPRLPRPRPRPFHRPRP | -0.0334 |
| RRIRPRPPRLPRPRPRPFIWPRP | -0.271 |
| RRIRPRPPRLPRPRPRPFLGPRP | -0.0178 |
| RRIRPRPPRLPRPRPRPFLHPRP | -0.273 |
| RRIRPRPPRLPRPRPRPFMKPRP | -0.915 |
| RRIRPRPPRLPRPRPRPFPVPRP | 0.00381 |
| RRIRPRPPRLPRPRPRPFPYPRP | -0.0798 |
| RRIRPRPPRLPRPRPRPFQTPRP | -0.242 |

| Sequence | shrunken log2 fold change |
| --- | --- |
| RRIRPRPPRLPRPRPRPFRHPRP | -0.191 |
| RRIRPRPPRLPRPRPRPFSIPRP | -0.164 |
| RRIRPRPPRLPRPRPRPFSYPRP | -0.192 |
| RRIRPRPPRLPRPRPRPFVSPRP | -0.443 |
| RRIRPRPPRLPRPRPRPFWLPRP | 0.115 |
| RRIRPRPPRLPRPRPRPFWRPRP | 0.0788 |
| RRIRPRPPRLPRPRPRPGCMPRP | 0.179 |
| RRIRPRPPRLPRPRPRPGGLPRP | 0.131 |
| RRIRPRPPRLPRPRPRPGGMPRP | 0.189 |
| RRIRPRPPRLPRPRPRPGHMPRP | -0.238 |
| RRIRPRPPRLPRPRPRPGKFPRP | -0.385 |
| RRIRPRPPRLPRPRPRPGKWPRP | 0.118 |
| RRIRPRPPRLPRPRPRPGNGPRP | 0.349 |
| RRIRPRPPRLPRPRPRPGQCPRP | -0.0386 |
| RRIRPRPPRLPRPRPRPGRHPRP | -0.166 |
| RRIRPRPPRLPRPRPRPGRKPRP | 0.199 |
| RRIRPRPPRLPRPRPRPGRLPRP | -0.0937 |
| RRIRPRPPRLPRPRPRPGSLPRP | -0.0171 |
| RRIRPRPPRLPRPRPRPGTEPRP | -0.0123 |
| RRIRPRPPRLPRPRPRPGWIPRP | -0.0354 |
| RRIRPRPPRLPRPRPRPGYSPRP | -0.0781 |
| RRIRPRPPRLPRPRPRPHAEPRP | 0.206 |
| RRIRPRPPRLPRPRPRPHCAPRP | 0.228 |
| RRIRPRPPRLPRPRPRPHELPRP | -0.0456 |
| RRIRPRPPRLPRPRPRPHFKPRP | 1.37 |

| Sequence | shrunken log2 fold change |
| --- | --- |
| RRIRPRPPRLPRPRPRPHGAPRP | 0.641 |
| RRIRPRPPRLPRPRPRPHGEPRP | -0.159 |
| RRIRPRPPRLPRPRPRPHGQPRP | 0.186 |
| RRIRPRPPRLPRPRPRPHGTPRP | -0.0314 |
| RRIRPRPPRLPRPRPRPHGWPRP | 0.274 |
| RRIRPRPPRLPRPRPRPHHSPRP | -0.454 |
| RRIRPRPPRLPRPRPRPHIPPRP | -0.492 |
| RRIRPRPPRLPRPRPRPHKWPRP | -0.216 |
| RRIRPRPPRLPRPRPRPHLLPRP | -0.0988 |
| RRIRPRPPRLPRPRPRPHMIPRP | -0.98 |
| RRIRPRPPRLPRPRPRPHMMPRP | -0.19 |
| RRIRPRPPRLPRPRPRPHMNPRP | -0.6 |
| RRIRPRPPRLPRPRPRPHMSPRP | -0.27 |
| RRIRPRPPRLPRPRPRPHNEPRP | -0.397 |
| RRIRPRPPRLPRPRPRPHNNPRP | -0.692 |
| RRIRPRPPRLPRPRPRPHNTPRP | -0.481 |
| RRIRPRPPRLPRPRPRPHQCPRP | -0.0701 |
| RRIRPRPPRLPRPRPRPHQWPRP | -0.0599 |
| RRIRPRPPRLPRPRPRPHRNPRP | -0.11 |
| RRIRPRPPRLPRPRPRPHTAPRP | -0.205 |
| RRIRPRPPRLPRPRPRPHTCPRP | -0.123 |
| RRIRPRPPRLPRPRPRPHTVPRP | -0.214 |
| RRIRPRPPRLPRPRPRPHYFPRP | -0.335 |
| RRIRPRPPRLPRPRPRPHYTPRP | -0.516 |
| RRIRPRPPRLPRPRPRPHYYPRP | -0.439 |
